Data as given in US20220363731A1 (LETO LABORATORIES, published 2022).

Experiments:
IL2Rβγ-Fc [1] = target: T1, IL2Rβγ-Fc (UniProt P14784 27-240; P31785 23-262, limits assumed); assay: BLI (Fortebio Octet RED96), IL2Rβγ-Fc loaded on ProA sensor, analyte 2.5-40 nM as labelled; R2 0.998
T1 construct: From Beijing Zhidao Biotechnology, loaded on ProA sensors; also called IL2Rβγ receptors; complex of β and γ receptor subunits; not shown: Fc
T1 sequence (looked up) 1: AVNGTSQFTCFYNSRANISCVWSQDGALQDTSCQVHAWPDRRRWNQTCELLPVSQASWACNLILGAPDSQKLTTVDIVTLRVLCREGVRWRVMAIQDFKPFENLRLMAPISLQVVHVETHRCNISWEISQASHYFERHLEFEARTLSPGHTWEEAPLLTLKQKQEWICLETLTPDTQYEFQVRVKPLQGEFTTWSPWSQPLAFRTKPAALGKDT
T1 sequence (looked up) 2: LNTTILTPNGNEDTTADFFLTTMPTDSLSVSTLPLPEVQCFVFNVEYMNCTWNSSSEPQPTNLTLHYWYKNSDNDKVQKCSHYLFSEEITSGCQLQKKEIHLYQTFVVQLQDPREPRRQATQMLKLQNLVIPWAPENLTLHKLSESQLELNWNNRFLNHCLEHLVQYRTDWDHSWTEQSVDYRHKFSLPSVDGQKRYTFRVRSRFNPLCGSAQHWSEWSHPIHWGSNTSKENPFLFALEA
Description: (§1) The buffer formulation was as follows: 10 mM HEPES, 150 mM sodium chloride, 3 mM EDTA, 0.1% BSA and 0.05% Tween 20. The ProA sensor was purchased from Pall Fortebio (Cat. No. #18-5010). The HISIK sensor was purchased from Pall Fortebio (Cat. No. #18-5120). The BLI equipment was Octet RED96 from Pall Fortebio. Data acquisition and analysis were carried out using software Data acquisition 11.0 and Data Analysis 11.0, respectively.
(§2) IL2Rβγ-Fc was diluted with the buffer solution to a concentration of 10 μg/mL, and then added to column 2 of the 96-well assay plate. The program was set to Loading, 600 s.
(§3) 8 ProA sensors were respectively placed in A-H of column 1 of the sensor holder. In the software Data acquisition 11.0, the detection conditions were set as follows. 1 Pre-wetting: Baseline, 60 s, Position: Column 1. 2 Cycle detection: column 2: loading, 600 s; column 4: Baseline 1, 60 s; columns 5-9: Association, 200 s; column 10: Dissociation, 600 s; column 11: neutralization; and column 12: regeneration.

IL2Rβγ-Fc [2] = target: T1, IL2Rβγ-Fc; assay: BLI (Fortebio Octet RED96), IL2Rβγ-Fc loaded on ProA sensor, analyte 1.25-40 nM; R2 0.9953
Description: as §2
(§4) They were added to columns 5-9 of the 96-well assay plate, respectively. The program was set to Association, 200 s. The buffers were added to columns 1, 4, 10 and 11 of the 96-well assay plate, and the glycine with pH 1.7 was added to column 12. The loading volume of the above samples or solutions was 200 μL.
as §3

IL2Rα-his = target: T2, IL2Rα-his (UniProt P01589 22-217, limits assumed); assay: BLI (Fortebio Octet RED96), IL2Rα-his loaded on HIS1K sensor, analyte at 100 nM
T2 construct: From Beijing Zhidao Biotechnology, loaded on HIS1K sensors; also called IL2Rα receptor; α receptor subunit; not shown: his tag
T2 sequence (looked up): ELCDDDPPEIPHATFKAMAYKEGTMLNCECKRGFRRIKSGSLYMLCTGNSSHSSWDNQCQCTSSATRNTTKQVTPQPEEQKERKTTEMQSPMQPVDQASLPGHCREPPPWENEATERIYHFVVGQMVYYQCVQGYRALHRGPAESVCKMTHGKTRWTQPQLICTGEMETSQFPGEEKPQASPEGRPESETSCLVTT
Description: as §1
IL2Rα-his was diluted with the buffer solution to a concentration of 10 μg/mL, and then added to column 3 of the 96-well assay plate. The program was set to Loading, 600 s.

IL2Rβγ-Fc [3] = target: T1, IL2Rβγ-Fc; assay: BLI (Fortebio Octet RED96), IL2Rβγ-Fc loaded on ProA sensor, analyte 1.25-40 nM; R2 0.9972
Description: as §2, §4, §3

IL2Rβγ-Fc [4] = target: T1, IL2Rβγ-Fc; assay: BLI (Fortebio Octet RED96), IL2Rβγ-Fc loaded on ProA sensor, analyte 2.5-40 nM as labelled; R2 0.9984
Description: as §1, §2, §3

B1: IL-2 Mutant 1, IL-2 (M39C, V69C, C125A) (ligand)
chain: APTSSSTKKTQLQLEHLLLDLQMILNGINNYKNPKLTRCLTFKFYMPKKATELKHLQCLEEELKPLEECLNLAQSKNFHLRPRDLISNINVIVLELKGSETTFMCEYADETATIVEFLNRWITFAQSIISTLT
notes: Designed to form an intramolecular disulfide bond between Cys39 and Cys69; not shown: HPC4 tag at the C-terminus
Kd (IL2Rβγ-Fc [1]): 0.56 nM

B2: IL-2 Mutant 2, IL-2 (F44C, E62C, C125A) (ligand)
chain: APTSSSTKKTQLQLEHLLLDLQMILNGINNYKNPKLTRMLTFKCYMPKKATELKHLQCLEECLKPLEEVLNLAQSKNFHLRPRDLISNINVIVLELKGSETTFMCEYADETATIVEFLNRWITFAQSIISTLT
notes: Designed to form an intramolecular disulfide bond between Cys44 and Cys62; not shown: HPC4 tag at the C-terminus
Kd (IL2Rβγ-Fc [2]): 0.675 nM
binding result (IL2Rα-his): no binding (tested: 100 nM)

B3: IL-2 Mutant 4, IL-2 (F42C, V69C, C125A) (ligand)
chain: APTSSSTKKTQLQLEHLLLDLQMILNGINNYKNPKLTRMLTCKFYMPKKATELKHLQCLEEELKPLEECLNLAQSKNFHLRPRDLISNINVIVLELKGSETTFMCEYADETATIVEFLNRWITFAQSIISTLT
notes: Designed to form an intramolecular disulfide bond between Cys42 and Cys69; not shown: HPC4 tag at the C-terminus
binding result (IL2Rα-his): no binding (tested: 100 nM)
Kd (IL2Rβγ-Fc [3]): 0.268 nM

B4: IL-2 Mutant 3, IL-2 (F44C, P65C, C125A) (ligand)
chain: APTSSSTKKTQLQLEHLLLDLQMILNGINNYKNPKLTRMLTFKCYMPKKATELKHLQCLEEELKCLEEVLNLAQSKNFHLRPRDLISNINVIVLELKGSETTFMCEYADETATIVEFLNRWITFAQSIISTLT
notes: Designed to form an intramolecular disulfide bond between Cys44 and Cys65; not shown: HPC4 tag at the C-terminus
Kd (IL2Rβγ-Fc [4]): 0.66 nM
